Experiments:
Experiment in all cases: SPR, mAb captured, C2 mutant analyte;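 also: Anti-C2 mAbs captured on goat anti-human IgG Biacore CM5 chips, alanine or serine C2 surface mutants flowed over at 37 °C, double-referenced sensorgrams fitted to a 1:1 binding model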
human C2 D404A = molecular target: T1, human C2 D404A (human, UniProt P06681 21-752)
T1 sequence: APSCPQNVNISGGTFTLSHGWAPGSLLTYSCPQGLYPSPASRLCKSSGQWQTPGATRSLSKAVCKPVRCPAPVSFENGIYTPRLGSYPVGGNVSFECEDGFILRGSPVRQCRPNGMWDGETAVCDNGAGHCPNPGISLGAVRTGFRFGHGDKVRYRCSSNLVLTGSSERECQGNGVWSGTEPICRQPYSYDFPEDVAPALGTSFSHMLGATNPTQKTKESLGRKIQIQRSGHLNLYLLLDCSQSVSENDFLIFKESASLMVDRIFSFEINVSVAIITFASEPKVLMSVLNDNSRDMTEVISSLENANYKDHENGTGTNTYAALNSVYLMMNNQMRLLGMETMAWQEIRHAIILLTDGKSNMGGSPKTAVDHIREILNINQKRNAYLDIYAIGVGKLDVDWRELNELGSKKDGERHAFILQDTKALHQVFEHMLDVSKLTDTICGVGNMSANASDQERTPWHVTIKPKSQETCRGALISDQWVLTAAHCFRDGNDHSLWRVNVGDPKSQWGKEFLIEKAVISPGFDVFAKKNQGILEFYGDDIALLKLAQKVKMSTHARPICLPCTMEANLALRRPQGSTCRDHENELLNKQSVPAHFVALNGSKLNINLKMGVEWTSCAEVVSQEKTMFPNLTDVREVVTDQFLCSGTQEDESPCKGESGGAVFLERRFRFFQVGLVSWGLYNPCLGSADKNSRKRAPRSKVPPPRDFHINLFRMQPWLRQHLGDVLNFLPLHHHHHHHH

human C2 E324A = molecular target: T2, human C2 E324A (human, UniProt P06681 21-752)
T2 sequence: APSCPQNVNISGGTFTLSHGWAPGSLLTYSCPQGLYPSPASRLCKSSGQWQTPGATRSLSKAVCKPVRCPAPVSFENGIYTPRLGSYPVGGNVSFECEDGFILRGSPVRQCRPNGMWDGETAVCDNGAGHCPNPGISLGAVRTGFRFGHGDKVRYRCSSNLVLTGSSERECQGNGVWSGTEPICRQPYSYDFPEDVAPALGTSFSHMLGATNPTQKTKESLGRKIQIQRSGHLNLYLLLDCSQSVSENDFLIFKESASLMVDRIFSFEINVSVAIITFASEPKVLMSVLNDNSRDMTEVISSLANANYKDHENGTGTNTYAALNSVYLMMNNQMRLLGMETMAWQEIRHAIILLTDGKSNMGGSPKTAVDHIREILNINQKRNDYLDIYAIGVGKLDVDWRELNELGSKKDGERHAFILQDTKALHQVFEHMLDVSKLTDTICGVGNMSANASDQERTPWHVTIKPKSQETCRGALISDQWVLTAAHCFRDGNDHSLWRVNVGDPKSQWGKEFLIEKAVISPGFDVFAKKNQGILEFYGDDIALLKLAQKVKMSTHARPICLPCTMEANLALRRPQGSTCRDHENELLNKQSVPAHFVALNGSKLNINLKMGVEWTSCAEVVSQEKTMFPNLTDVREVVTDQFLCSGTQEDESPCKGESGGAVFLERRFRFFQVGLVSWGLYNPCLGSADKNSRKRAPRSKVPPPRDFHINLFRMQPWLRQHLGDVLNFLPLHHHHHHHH

human C2 E267A = molecular target: T3, human C2 E267A (human, UniProt P06681 21-752)
T3 sequence: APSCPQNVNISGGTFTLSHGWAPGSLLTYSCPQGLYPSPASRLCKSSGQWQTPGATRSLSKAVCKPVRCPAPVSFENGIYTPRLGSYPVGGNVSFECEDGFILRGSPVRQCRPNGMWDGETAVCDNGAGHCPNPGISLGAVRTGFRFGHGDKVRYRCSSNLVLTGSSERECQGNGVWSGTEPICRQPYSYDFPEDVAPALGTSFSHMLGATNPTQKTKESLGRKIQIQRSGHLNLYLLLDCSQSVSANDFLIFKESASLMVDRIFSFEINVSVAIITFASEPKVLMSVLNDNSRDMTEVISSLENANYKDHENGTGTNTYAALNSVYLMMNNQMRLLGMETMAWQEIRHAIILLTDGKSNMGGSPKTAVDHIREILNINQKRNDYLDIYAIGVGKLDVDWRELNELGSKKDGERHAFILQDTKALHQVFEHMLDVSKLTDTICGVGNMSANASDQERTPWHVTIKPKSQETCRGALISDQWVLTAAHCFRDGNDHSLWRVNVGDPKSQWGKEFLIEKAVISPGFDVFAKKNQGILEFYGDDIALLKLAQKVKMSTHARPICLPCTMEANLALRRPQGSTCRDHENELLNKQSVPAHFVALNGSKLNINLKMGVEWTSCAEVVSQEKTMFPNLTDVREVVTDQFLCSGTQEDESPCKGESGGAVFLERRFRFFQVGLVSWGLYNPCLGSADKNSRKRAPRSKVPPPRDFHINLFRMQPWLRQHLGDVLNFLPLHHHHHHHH

human C2 A472S = molecular target: T4, human C2 A472S (human, UniProt P06681 21-752)
T4 sequence: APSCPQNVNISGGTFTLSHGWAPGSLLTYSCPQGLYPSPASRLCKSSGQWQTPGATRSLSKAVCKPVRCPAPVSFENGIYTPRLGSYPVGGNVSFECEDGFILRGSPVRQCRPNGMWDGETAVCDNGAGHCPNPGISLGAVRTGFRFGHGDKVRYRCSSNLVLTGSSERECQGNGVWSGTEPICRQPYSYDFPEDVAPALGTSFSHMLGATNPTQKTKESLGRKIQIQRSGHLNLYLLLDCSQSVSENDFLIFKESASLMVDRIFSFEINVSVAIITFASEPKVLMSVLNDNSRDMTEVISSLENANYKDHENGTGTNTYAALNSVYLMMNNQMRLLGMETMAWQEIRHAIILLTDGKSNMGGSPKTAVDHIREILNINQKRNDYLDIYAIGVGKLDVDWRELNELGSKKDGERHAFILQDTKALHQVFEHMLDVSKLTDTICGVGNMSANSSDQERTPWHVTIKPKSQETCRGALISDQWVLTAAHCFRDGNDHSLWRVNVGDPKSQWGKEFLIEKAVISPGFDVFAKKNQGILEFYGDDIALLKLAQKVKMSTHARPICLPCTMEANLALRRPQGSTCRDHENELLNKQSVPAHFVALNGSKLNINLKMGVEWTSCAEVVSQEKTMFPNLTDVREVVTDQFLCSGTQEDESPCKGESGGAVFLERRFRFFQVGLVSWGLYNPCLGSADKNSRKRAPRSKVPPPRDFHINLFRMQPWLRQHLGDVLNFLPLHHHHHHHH

B1: RF16-214 (antibody, V domains shown)
VH: EVQLLESGGGLVQPGGSLRLSCAASGFTFSWYQMMWVRQAPGKGLEWVSRIYPSGGGTAYADSVKGRFTISRDNSKNTLYLQMNSLRAEDTAVYYCARDAGYGDNWGQGTLVTVSS
VL: QSALTQPPSVSVSPGQTASITCSGDKLGEKYASWYQQKAGQSPVMVIYQDRKRPSGIPERFSGSNSGNTATLTISGTQAMDEADYYCQAWDTRAVVFGGGTKLTVLG
Kd (human C2 D404A): 77.6 nM | Kd (human C2 E324A): 27.8 nM | Kd (human C2 E267A): 26.2 nM | Kd (human C2 A472S): 234 nM

— patent US20220332804A1 (CSL INNOVATION, published 2022)
